This assay deals with T1, holo human lactoferrin (iron-loaded hLf) (human).
T1 construct: human lactoferrin, iron-loaded (holo) form; Iron-loaded form; also called holo-hLf; holo-Lf; source: bought: Agennix (named for XL-MS)
The assay is described as follows: BLI; Octet RED 96; biotinylated MBP-LbpB constructs loaded from crude E. coli extracts on streptavidin sensors; holo-hLf 10-800 nM in 1 X PBS pH 7.4, 0.002% Tween-20, 0.1 mg/mL BSA; steady-state fit, apparent KD. To be noted: one partner purified. In general terms: Biolayer interferometry detects binding as a change in optical thickness at a sensor tip.

B1: LbpB C-terminal lobe with N-terminal biotin acceptor peptide, fused to MBP (BLI construct) (domain or fragment)
chain: ENAADTKPALSSGKHTKILDSLKISVDEASDKNPREFAISSMPDFGHPDKLLVEGREIPLVNKEQTIELADGRKTTIRTCCDFLTYVKIGRMQTERPAAKPKAQDEERDEEDTGVDSVEEGEDEIDDEEGTEDAAVKDEGSEEDEAVEGEDEAEEPEEESPTEEGGSGSDGILPAPEAPKGRNIDLFLKGIRTAETDIPKTGEAHYTGTWEARIGKPIQWDNQADKEAAKAVFTVDFGKKSISGTLTEENGVEPAFHIENGKIEGNGFYATARTRENGINLSGNGSTDPKTFQASNLRVEGGFYGPQAEELGGIIFNNDGKSLGITEGTENKVDVEAEVDAEVDVGKQLESEVKHQFGVVFGAKKDMQEVEK
modifications: biotin on the biotin acceptor peptide
On to B1, for which the Kd came to 279 ± 15 nM.

The values are drawn from PMC5352143, “Lactoferrin binding protein B – a bi-functional bacterial receptor protein” (PLoS Pathogens, 2017).
